According to patent US20240309104A1 (PROMETHEUS BIOSCIENCES, published 2024):
Where a chain is given by its changes, count along the chain named. Values joined by “and” are separate entries in the source; they are usually repeats but may differ in a detail not shown here. Equal entries are not always repeated.

Columns and labels:
Experiment in all cases: cell-based or functional assay
[1] = biological target: T1, TL1A produced by PBMCs in cynomolgus monkey whole blood (cynomolgus monkey, UniProt G7PRK8 72-251)
T1 sequence: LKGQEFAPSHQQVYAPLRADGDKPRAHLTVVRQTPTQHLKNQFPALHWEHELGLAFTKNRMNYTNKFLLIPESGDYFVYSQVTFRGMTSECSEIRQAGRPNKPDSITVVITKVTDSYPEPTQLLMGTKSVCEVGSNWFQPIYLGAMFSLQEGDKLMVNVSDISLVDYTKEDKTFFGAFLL

[2] = biological target: T2, recombinant human TL1A protein (human, UniProt O95150 72-251)
T2 sequence (looked up): T1 sequence with L39F, V78I

[3] = biological target: T3, recombinant cynomolgus monkey TL1A protein (cynomolgus monkey, UniProt G7PRK8 72-251)
T3 sequence: T1 sequence

inhibition of the IFN-γ response in monkey whole blood (mean IC50) [1]: 1.54 nM and 289 ng/mL | inhibition of TL1A-induced caspase activation in TF-1 cells (IC50) [2]: 0.27 nM | inhibition of TL1A-induced caspase activation in TF-1 cells (IC50) [3]: 0.59 nM
B1: anti-TL1A antibody A219 (antibody, V domains shown)
VH: QVQLVQSGAEVKKPGASVKVSCKASGFDIQDTYMHWVKQRPGQGLEWMGRIDPASGHTKYDPKFQVRVTITRDTSTSTVYLELSSLRSEDTAVYYCARSGGLPDVWGQGTTVTVSS
VL: EIVLTQSPGTLSLSPGERATLSCRASSSVSYMYWYQQKPGQAPRPLIYATSNLASGIPDRFSGSGSGTDFTLTISRLEPEDFAVYYCQQWEGNPRTFGGGTKLEIK
